Consider two molecules from paper PMC7333480 (Journal of Molecular Cell Biology, 2019).

The target in this assay is His-ezrin WT (UniProt P15311 1-586). Description: pull-down.
His-ezrin WT, sequence (P15311 whole entry): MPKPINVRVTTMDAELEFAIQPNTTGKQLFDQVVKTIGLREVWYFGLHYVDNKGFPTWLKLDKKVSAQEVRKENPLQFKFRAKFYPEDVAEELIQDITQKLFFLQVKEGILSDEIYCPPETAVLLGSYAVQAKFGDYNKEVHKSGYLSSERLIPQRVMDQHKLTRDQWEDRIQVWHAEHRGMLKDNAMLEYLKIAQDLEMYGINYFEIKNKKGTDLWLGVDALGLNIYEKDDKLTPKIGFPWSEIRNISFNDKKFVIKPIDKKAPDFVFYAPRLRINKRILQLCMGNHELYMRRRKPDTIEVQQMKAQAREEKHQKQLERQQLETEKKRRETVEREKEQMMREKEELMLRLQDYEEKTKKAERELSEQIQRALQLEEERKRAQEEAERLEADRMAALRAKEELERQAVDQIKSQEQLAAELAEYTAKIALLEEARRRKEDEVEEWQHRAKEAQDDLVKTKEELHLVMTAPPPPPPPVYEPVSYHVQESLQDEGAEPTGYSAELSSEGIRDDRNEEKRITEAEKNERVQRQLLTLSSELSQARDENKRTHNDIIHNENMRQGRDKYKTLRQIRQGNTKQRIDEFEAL

B1: GST-EBP50-CT (domain or fragment)
chain: KENSREALAEAALESPRPALVRSASSDTSEELNSQDSPPKQDSTAPSSTSSSDPILDFNISLAMAKERAHQKRSSKRAPQMDWSKKNELFSNL
Take B1: the binding result was “binds”. The same measure for FGQHLRQQRMGTYGVRAAWRRLPQAFRP (domain or fragment) [GST-ICAM2-CT]: “binds”.
